Measurements published in the DeepSol protein solubility set.

assay: soluble on expression in E. coli; label from the status in PepcDB or PDB records

Sequence | soluble on expression in E. coli
MSLLACCAIYSPVRCAFPYTETERRFTCKRRIFRIILTLCGRENMKIRALLVAMSVATVLTGCQNMDSNGLLSSGAEAFQAYSLSDAQVKTLSDQACQEMDSKATIAPANSEYAKRLTTIANALGNNINGQPVNYKVYMAKDVNAFAMANGCIRVYSGLMDMMTDNEVEAVIGHEMGHVALGHVKKGMQVALGTNAVRVAAASAGGIVGSLSQSQLGNLGEKLVNSQFSQRQEAEADDYSYDLLRQRGISPAGLATSFEKLAKLEEGRQSSMFDDHPASAERAQHIRDRMSADGIKEGGSHHHHHH | soluble
MGSDKIHHHHHHLFDRYEAGETAVLVHIDFSDDERREDLVELQLLVESAGARSVGVITGSRRAPDRKFFVGTGKAEELAAMVAATEAKVVIFNHALSPAQERNLERVCHCRVLDRTTLILDIFAQRARTHEGKLQVELAQLRHMSTRLIRGWTHLERQKGGIGMRGPGETQLETDRRLLRGRIKNINRRLDKVDKQREQSRRSRKRSDLATVSLVGYTNAGKSTLFNGLTSSDVYAADQLFATLDPTLRKLDLPDGAVILADTVGFIRHLPHDLVAAFKATLQETRQAELLLHIVDCADDNMQDNFDQVQDVLKEIDADEIPQLVVCNKIDLLEDFAPRIDYAEDGTPERVWLSAQKGQGFDLLLQAITELVGNIVLELTLKVPATGGHYIGQMYKLDVIEHKDYDDLGNCIVKIRLLDADWRRMIKQSQGELETFVFEASETDVIL | not soluble
MTAAPYNYSYIFKYIIIGDMGVGKSCLLHQFTEKKFMADCPHTIGVEFGTRIIEVSGQKIKLQIWDTAGQERFRAVTRSYYRGAAGALMVYDITRRSTYNHLSSWLADAKSLTNPNTAIFLIGNKADLEDQRDVPYEEAKAFAEENGLTFLECSAKTGSNVEDAFLETAKQIYQNIQDGSLDLNAADTGVQPKQNLPRAAENNGKKDCNC | not soluble
MGSDKIHHHHHHMGGRGSGKTRAGAEWVSGMALGLPPFAGKPSGHIALVGETFNDAREVMVDGPSGILSVSRLVRPRYEASRRRLIWDNGAVATLFSSEDPDSLRGPQFDAAWCDELAKWKNPQETWDMLQFGLRLGDNPRQVVTTTPRAVPLLKALLTDRTVSMTHMRTAENAGNLAEGFMQTIARRYAGTRLGRQELDGELVEERPGALWSRDRIEQCFEENPPPLARIVVAVDPPASSGKASDACGIVVAGIDAEGVGHVLADESMTMAKPHQWARRAIALYHTHEADAIVAEVNQGGEMVAAEDPSVPVLKRRASRGKWLRAEPVAALYEQGRVRHAGRFPALEDEMCDFAPEGLSSGRSPDRLDALVWALGELMLGADHKPRIRRFG | not soluble
TYSLRTFFVRESAEGLTQGELMKLIKEIVENEDKRKPYSDQEIANILKEKGFKVARRTVAKYREMLGIPSSRERRI | soluble
MNRTAMRASQKDFENSMNQVKLLKKDPGNEVKLKLYALYKQATEGPCNMPKPGVFDLINKAKWDAWNALGSLPKEAARQNYVDLVSSLSPSLESSSQVEPGTD | soluble
PPIILQGPANQTLAVDGTALLKCKATGDPLPVISWLKEGFTFPGRDPRATIQEQGTLQIKNLRISDTGTYTCVATSSSGETSWSAVLDVTESG | soluble
GMSEENKIGTYQFVAEPFHVDFNGRLTMGVLGNHLLNCAGFHASDRGFGIATLNEDNYTWVLSRLAIELDEMPYQYEKFSVQTWVENVYRLFTDRNFAVIDKDGKKIGYARSVWAMINLNTRKPADLLALHGGSIVDYICDEPCPIEKPSRIKVTSNQPVATLTAKYSDIDINGHVNSIRYIEHILDLFPIELYQTKRIRRFEMAYVAESYFGDELSFFCDEVSENEFHVEVKKNGSEVVCRSKVIFE | soluble
LIELIQYTPTTDTVRPEPILIVPAWIMKYYILDLSPENSMVKFLVDQGYTVFMISWRNPSAEDRDLGLDDYRKMGVVDAIGAVQGIVPDQKIHGVGYCLGGTLLSISAATMGRDGGDPFASLSYLASQIDFTEPGELQLFINESQLTFLEDMMWDHGYLDTTQMSGAFQMIGSADLVWSRSLHSYLMGDEPAMFDLLAWNADGTRMPYRMHSEYLRSLYLNNELTEGAFVVEGRPISVTDIRVPVFSVGTVKDHVAPWPSVYKMHLYLDTDLTFVLTSGGHN | not soluble
